T1: SERK3 LRR ectodomain (SERK3^1-220), wild type (A. thaliana, UniProt Q94F62 26-220)
T1 sequence (looked up): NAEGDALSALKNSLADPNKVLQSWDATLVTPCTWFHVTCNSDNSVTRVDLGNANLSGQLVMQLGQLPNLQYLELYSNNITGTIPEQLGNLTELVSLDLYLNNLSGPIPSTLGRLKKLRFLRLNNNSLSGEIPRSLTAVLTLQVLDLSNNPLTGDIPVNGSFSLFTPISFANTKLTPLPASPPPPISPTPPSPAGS

T2: SERK3^D122N LRR ectodomain (elg) (A. thaliana, UniProt Q94F62 26-220, D122N)
T2 sequence (looked up): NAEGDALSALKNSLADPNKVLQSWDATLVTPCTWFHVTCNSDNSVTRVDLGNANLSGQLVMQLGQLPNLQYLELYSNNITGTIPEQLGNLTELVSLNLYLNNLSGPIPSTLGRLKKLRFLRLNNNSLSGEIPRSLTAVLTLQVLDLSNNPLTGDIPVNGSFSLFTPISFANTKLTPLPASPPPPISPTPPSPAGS

T3: SERK3^F60A LRR ectodomain (A. thaliana, UniProt Q94F62 26-220, F60A)
T3 sequence (looked up): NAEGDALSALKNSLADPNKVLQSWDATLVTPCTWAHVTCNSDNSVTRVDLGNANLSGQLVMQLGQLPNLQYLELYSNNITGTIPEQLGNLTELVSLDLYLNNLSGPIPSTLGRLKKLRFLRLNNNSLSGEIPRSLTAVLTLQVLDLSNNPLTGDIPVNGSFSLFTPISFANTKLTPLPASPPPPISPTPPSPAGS


How the values were obtained:
Assay in all cases: ITC
[1] = target: different SERK ectodomains
[2] = target: T1, SERK3 LRR ectodomain (SERK3^1-220), …
[3] = target: T2, SERK3^D122N LRR ectodomain (elg)
[4] = target: T3, SERK3^F60A LRR ectodomain

Row | Binder | Kd [1] [µM] | binding result [2] | fold reduction of binding against wild-type SERK3 [3] [fold] | binding result [4] | Kd [2] [µM] | stoichiometry N [2]
1 | BIR2 LRR ectodomain (BIR2^1-222), wild type (domain or fragment, A. thaliana, UniProt Q9LSI9 29-222, looked up, N-glycan at Asn58 (in the crystal structure)) ADEDDIRCLRGLKASLTDPQNALKSWNFDNTTLGFLCNFVGVSCWNNQENRVINLELRDMGLSGKIPDSLQYCASLQKLDLSSNRLSGNIPTELCNWLPFLVSLDLSNNELNGEIPPDLAKCSFVNSLVLSDNRLSGQIPVQFSALGRLGRFSVANNDLSGRIPVFFSSPSYSSDDFSGNKGLCGRPLSSSCGG | 1 to 3 | binds | ~8 | binds | – | –
2 | BIR2^V157D LRR ectodomain (domain or fragment, A. thaliana, UniProt Q9LSI9 29-222, looked up) ADEDDIRCLRGLKASLTDPQNALKSWNFDNTTLGFLCNFVGVSCWNNQENRVINLELRDMGLSGKIPDSLQYCASLQKLDLSSNRLSGNIPTELCNWLPFLVSLDLSNNELNGEIPPDLAKCSFVNSLDLSDNRLSGQIPVQFSALGRLGRFSVANNDLSGRIPVFFSSPSYSSDDFSGNKGLCGRPLSSSCGG | – | binds | – | – | – | –
3 | BIR3 LRR ectodomain (BIR3^1-213) (domain or fragment, A. thaliana, UniProt O04567 25-213, looked up, N-glycosylated (fully glycosylated in the crystal; sites not given)) EDDVLCLQGLKNSLIDPSSRLSSWSFPNSSASSICKLTGVSCWNEKENRIISLQLQSMQLAGEIPESLKLCRSLQSLDLSGNDLSGSIPSQICSWLPYLVTLDLSGNKLGGSIPTQIVECKFLNALILSDNKLSGSIPSQLSRLDRLRRLSLAGNDLSGTIPSELARFGGDDFSGNNGLCGKPLSRCGA | 1 to 3 | – | ~4 | – | ~1 | 1

Other lines, results leading:

Row | Kd [1] [µM] | binding result [2] | fold reduction of binding against wild-type SERK3 [3] [fold] | binding result [4] | Kd [2] [µM] | stoichiometry N [2] | Binder
4 | – | binds | – | – | – | – | BIR2^W73A LRR ectodomain (domain or fragment, A. thaliana, UniProt Q9LSI9 29-222, looked up) ADEDDIRCLRGLKASLTDPQNALKSWNFDNTTLGFLCNFVGVSCANNQENRVINLELRDMGLSGKIPDSLQYCASLQKLDLSSNRLSGNIPTELCNWLPFLVSLDLSNNELNGEIPPDLAKCSFVNSLVLSDNRLSGQIPVQFSALGRLGRFSVANNDLSGRIPVFFSSPSYSSDDFSGNKGLCGRPLSSSCGG
5 | – | binds | – | – | – | – | BIR2^E84R LRR ectodomain (domain or fragment, A. thaliana, UniProt Q9LSI9 29-222, looked up) ADEDDIRCLRGLKASLTDPQNALKSWNFDNTTLGFLCNFVGVSCWNNQENRVINLRLRDMGLSGKIPDSLQYCASLQKLDLSSNRLSGNIPTELCNWLPFLVSLDLSNNELNGEIPPDLAKCSFVNSLVLSDNRLSGQIPVQFSALGRLGRFSVANNDLSGRIPVFFSSPSYSSDDFSGNKGLCGRPLSSSCGG

Source: publication doi:10.1101/257543 (bioRxiv, 2018)
